According to US9872893B2, “Endolysins active against Staphylococcus bacteria, pharmaceutical compositions, and methods relating thereto” (priority 2014, dated 2018):

Assays:
[1] = tested on: S. aureus NRS-14 (VISA strain); assay: bactericidal analysis (CFU counts, MBC); type: cell-based, Staphylococcus aureus; conditions: 1 hour, stationary phase
Method: Sterile-filtered PlyGRCS was 2-fold serially diluted in PBS supplemented with 1 mM CaCl2 and an equal volume of either various concentrations of enzyme or buffer only was added to 10^5 S. aureus NRS-14 in a microtiter plate. Samples were incubated at 37° C. for 1 hour, then serially diluted, plated on TSB agar, and incubated overnight at 37° C. to obtain CFU counts. The MBC (minimum bactericidal concentration) was determined as the minimum concentration of enzyme that killed ≧99.9% of bacteria.
It has been noted that the minimal inhibitory concentration (MIC) assay may not be the most appropriate assay to measure endolysin efficacy due to the speed at which the enzyme acts (Kusuma C M et al. (2005) Comparison of four methods for determining lysostaphin susceptibility of various strains of Staphylococcus aureus. Antimicrobial agents and chemotherapy 49(8):3256-63). Therefore, we employed the minimum bactericidal concentration (MBC) assay, which is the lowest concentration of enzyme that kills ≧99.9% (i.e. 3 logs) of the test inoculum (Jones R et al. (1985) Susceptibility tests: microdilution and macrodilution broth procedures. In: Balows A, Hausler J, Shadomy H (eds) Manual of Clinical Microbiology. American Society for Microbiology, Washington, D.C., pp 972-7).

[2] = tested on: Streptococcus pyogenes, D471; assay: plate lysis assay (spectrum of lytic activity); type: cell-based; set-up: key: strong lytic zone = ++; weak lytic zone = +; no lytic zone = −; conditions: 6 μg
Method: (§1) The PlyGRCS spectrum of lytic activity was performed (Schmelcher M et al. (2012) Chimeric phage lysins act synergistically with lysostaphin to kill mastitis-causing Staphylococcus aureus in murine mammary glands. Appl Environ Microbiol 78(7):2297-305) with minor modifications. Bacterial cells were diluted in sterile PBS to an OD600=1, and 100 μl was spread on each plate. 10 μl spots (600 μg/ml) of PlyGRCS or CHAPGRCS were applied. Plates were incubated overnight at 37° C. Strength of lytic zones was defined qualitatively.

[3] = tested on: Staphylococcus aureus, NRS-385; assay: plate lysis assay (spectrum of lytic activity); type: cell-based; set-up: key: strong lytic zone = ++; weak lytic zone = +; no lytic zone = −; conditions: 6 μg; S. aureus NRS-385, MRSA
Method: as §1

[4] = tested on: Enterococcus facealis, EF24; assay: plate lysis assay (spectrum of lytic activity); type: cell-based; set-up: key: strong lytic zone = ++; weak lytic zone = +; no lytic zone = −; conditions: 6 μg
Method: as §1

Bacillus pumulis, BJ0055 = assay: plate lysis assay (spectrum of lytic activity); type: cell-based; set-up: key: strong lytic zone = ++; weak lytic zone = +; no lytic zone = −; conditions: 6 μg
Method: as §1

[5] = tested on: Streptococcus uberis, ATCC 700407; assay: plate lysis assay (spectrum of lytic activity); type: cell-based; set-up: key: strong lytic zone = ++; weak lytic zone = +; no lytic zone = −; conditions: 6 μg
Method: as §1

[6] = tested on: Streptococcus suis, 730082; assay: plate lysis assay (spectrum of lytic activity); type: cell-based; set-up: key: strong lytic zone = ++; weak lytic zone = +; no lytic zone = −; conditions: 6 μg
Method: as §1

[7] = tested on: Streptococcus pneumoniae, ATCC BAA-334; assay: plate lysis assay (spectrum of lytic activity); type: cell-based; set-up: key: strong lytic zone = ++; weak lytic zone = +; no lytic zone = −; conditions: 6 μg
Method: as §1

[8] = tested on: Staphylococcus aureus, NRS-382; assay: plate lysis assay (spectrum of lytic activity); type: cell-based; set-up: key: strong lytic zone = ++; weak lytic zone = +; no lytic zone = −; conditions: 6 μg; S. aureus NRS-382, MRSA
Method: as §1

[9] = tested on: Streptococcus equi, ATCC 9528; assay: plate lysis assay (spectrum of lytic activity); type: cell-based; set-up: key: strong lytic zone = ++; weak lytic zone = +; no lytic zone = −; conditions: 6 μg
Method: as §1

[10] = tested on: Staphylococcus aureus, NRS-14; assay: plate lysis assay (spectrum of lytic activity); type: cell-based; set-up: key to strength of lytic zone: strong lytic zone = ++; weak lytic zone = +; no lytic zone = −; conditions: 6 μg
Method: as §1

[11] = tested on: Staphylococcus epidermidis, NRS-101; assay: plate lysis assay (spectrum of lytic activity); type: cell-based; set-up: key to strength of lytic zone: strong lytic zone = ++; weak lytic zone = +; no lytic zone = −; conditions: 6 μg
Method: as §1

[12] = tested on: Staphylococcus aureus, NRS-71; assay: plate lysis assay (spectrum of lytic activity); type: cell-based; set-up: key to strength of lytic zone: strong lytic zone = ++; weak lytic zone = +; no lytic zone = −; conditions: 6 μg
Method: as §1

[13] = tested on: Staphylococcus aureus, NRS-384; assay: plate lysis assay (spectrum of lytic activity); type: cell-based; set-up: key to strength of lytic zone: strong lytic zone = ++; weak lytic zone = +; no lytic zone = −; conditions: 6 μg; S. aureus NRS-384, MRSA
Method: as §1

B1: PlyGRCS: endolysin of bacteriophage GRCS (ORF15), amino acids 1-250, SEQ ID NO: 5, C-terminal 6× His tag (protein)
chain: MKSQQQAKEWIYKHEGTGVDFDGAYGFQCMDLAVAYVYYITDGKVRMWGNAKDAINNDFKGLATVYENTPSFKPQLGDVAVYTNSQYGHIQCVISGNLDYYTCLEQNWLGGGFDGWEKATIRTHYYDGVTHFIRPKFSASNSNVLETSKVNTFGNWKQNQYGTYYRNENATFTCGFLPIFARVGSPKLSEPNGYWFQPNGYTPYDEVCLSDGLVWIGYNWQGTRYYLPVRQWNGKTGNSYSIGLPWGVFS
modifications: C-terminal 6xHis tag; Synthetically generated polypeptide (PlyGRCS phage (S. aureus))
Question: What does the source list for B1?
Answer: reduction of bacterial counts ([1]; 6.25 μg/ml): 2 logs; log decrease ([1]; 12.5 μg/ml): 2.5 log; log killing ([1]; 25 μg/ml): 3 log; strength of lytic zone [2]: −; strength of lytic zone [3]: +; strength of lytic zone [4]: −; strength of lytic zone (Bacillus pumulis, BJ0055): −; strength of lytic zone [5]: −; strength of lytic zone [6]: −; strength of lytic zone [7]: −; strength of lytic zone [8]: +; strength of lytic zone [9]: −; lytic activity on plates (in words) ([10]; S. aureus NRS-14): greatest strength; strength of lytic zone ([10]; S. aureus NRS-14, VISA): ++; lytic activity on plates (in words) ([11]; S. epidermidis NRS-101): greatest strength; strength of lytic zone ([11]; S. epidermidis NRS-101, MRSE): ++; lytic activity on plates (in words) ([12]; S. aureus NRS-71): greatest strength; strength of lytic zone ([12]; S. aureus NRS-71, MRSA): ++; strength of lytic zone [13]: +
